Measurements published in patent publication US11732029B2, “Methods and compositions for the treatment of wounds” (The University of Chicago, priority 2017, dated 2023).

What was measured:
VEGF-A165 [1] = biological target: T1, VEGF-A165 (Homo sapiens, UniProt P15692); assay: Surface plasmon resonance, vWF against GF; assay type: binding; settings: SPR; vWF immobilized; 1:1 Langmuir fit, single KD; read-out: dissociation constant (KD value) for VEGF-A165
T1 construct: All growth factors (GFs) and chemokines were purchased in their mature forms; purchased PeproTech; host or cells: Escherichia coli
T1 sequence (P15692 27-191 isoform P15692-4 limits assumed): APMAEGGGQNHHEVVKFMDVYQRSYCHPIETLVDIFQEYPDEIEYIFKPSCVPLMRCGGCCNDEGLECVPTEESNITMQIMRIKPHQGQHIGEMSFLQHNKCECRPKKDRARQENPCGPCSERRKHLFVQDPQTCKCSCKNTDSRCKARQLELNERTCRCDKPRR
Experimental: (§1) SPR assays were performed as described previously2. In brief, measurements were made with a Biacore X100 SPR system or Biacore 3000 SPR system (GE Healthcare). Plasma-derived vWF was immobilized via amine coupling on a C1 chip (GE Healthcare) for 2000 resonance units (RU) according to the manufacturer's instructions. Recombinant human VEGF-A165, VEGF-A121, or PDGF-BB was flowed at increasing concentrations in the running buffer at 30 μL/min. The sensor chip was regenerated with glycine at pH 2 for every cycle. Specific binding of GFs to vWF was calculated automatically using the response to a non-functionalized channel as a reference. Binding curves were fitted using BIAevalution software (GE Healthcare). vWF-VEGF-A165 binding results were fitted with Langmuir binding kinetics (1:1 binding with drifting baseline Rmax local). vWF-PDGF-BB binding results were fitted with heterogeneous ligand-parallel reaction.

VEGF-A121 = biological target: T2, VEGF-A121 (Homo sapiens, UniProt P15692); assay: vWF binding to recombinant GFs (ELISA); set-up: All GFs and chemokines were purchased in their mature forms; purchased PeproTech; host or cells: Escherichia coli; settings: non-binding reference
T2 sequence (P15692 27-147 isoform P15692-9 limits assumed): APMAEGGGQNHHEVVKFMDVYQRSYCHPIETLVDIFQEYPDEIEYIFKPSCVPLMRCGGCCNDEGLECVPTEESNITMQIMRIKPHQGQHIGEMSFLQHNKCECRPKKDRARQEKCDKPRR
Experimental: (§2) ELISA tests were performed as previously reported1. In brief, ELISA plates (med-binding, Greiner Bio-One) were coated with 50 nM GFs at 37° C. for 2 hrs. After blocking with 2% BSA solution containing PBS-T, 1 μg/mL of plasma-derived vWF (EMD Millipore) was added. Bound vWF was detected with 1 μg/mL of rabbit anti-human vWF antibody (Sino Biological). Then, HRP conjugated goat anti-rabbit antibody (Jackson ImmunoResearch) was added. After 60 min of incubation, 50 μL TMB substrate (Sigma-Aldrich) was added. The reaction was stopped by adding 25 μL of 2N H2SO4. Subsequently, the absorbance at 450 nm was measured and subtracted the absorbance at 570 nm.

BMP-2 = biological target: T3, BMP-2 (Homo sapiens, UniProt P12643); assay: vWF binding to recombinant GFs (ELISA); set-up: All GFs and chemokines were purchased in their mature forms; purchased PeproTech; host or cells: Escherichia coli; settings: VEGF-A121 signal as baseline
T3 sequence (P12643 283-396): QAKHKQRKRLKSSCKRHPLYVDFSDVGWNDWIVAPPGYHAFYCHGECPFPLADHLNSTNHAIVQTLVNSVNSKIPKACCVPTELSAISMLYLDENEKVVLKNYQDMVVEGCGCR
Experimental: as §2

PDGF-CC = biological target: T4, PDGF-CC (Homo sapiens, UniProt Q9NRA1); assay: vWF binding to recombinant GFs (ELISA); settings: VEGF-A121 signal as baseline
T4 construct: All GFs and chemokines were purchased in their mature forms; purchased PeproTech; host or cells: Escherichia coli
Experimental: as §2

TGF-β1 = biological target: T5, TGF-β1 (Homo sapiens, UniProt P01137); assay: vWF binding to recombinant GFs (ELISA); settings: VEGF-A121 signal as baseline
T5 construct: All GFs and chemokines were purchased in their mature forms; purchased PeproTech; host or cells: eukaryotic cells (not specified)
Experimental: as §2

BMP-7 = biological target: T6, BMP-7 (Homo sapiens, UniProt P18075); assay: vWF binding to recombinant GFs (ELISA); settings: VEGF-A121 signal as baseline
T6 construct: All GFs and chemokines were purchased in their mature forms; purchased PeproTech; host or cells: eukaryotic cells (not further specified)
T6 sequence (P18075 293-431): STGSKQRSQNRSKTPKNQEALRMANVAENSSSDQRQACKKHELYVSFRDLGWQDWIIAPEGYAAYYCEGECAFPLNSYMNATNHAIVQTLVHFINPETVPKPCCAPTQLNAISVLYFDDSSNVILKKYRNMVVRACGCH
Experimental: as §2

CXCL-12γ [2] = biological target: T7, CXCL-12γ (Homo sapiens, UniProt P48061); assay: vWF binding to recombinant GFs (ELISA); settings: VEGF-A121 signal as baseline
T7 construct: All GFs and chemokines were purchased in their mature forms; purchased R & D Systems; host or cells: Escherichia coli
Experimental: as §2

β-NGF = biological target: T8, β-NGF (Homo sapiens, UniProt P01138); assay: vWF binding to recombinant GFs (ELISA); settings: VEGF-A121 signal as baseline
T8 construct: All GFs and chemokines were purchased in their mature forms; purchased PeproTech; host or cells: Escherichia coli
Experimental: as §2

PDGF-BB [3] = biological target: T9, PDGF-BB (Homo sapiens, UniProt P01127); assay: Surface plasmon resonance, vWF against GF; settings: SPR; vWF immobilized; two estimated binding sites, heterogeneous ligand-parallel reaction fit; read-out: lowest KD value for PDGF-BB
T9 construct: All growth factors (GFs) and chemokines were purchased in their mature forms; purchased PeproTech; host or cells: Escherichia coli
Experimental: as §1

CXCL-12γ [4] = biological target: T7, CXCL-12γ; assay: Recombinant GF binding to the vWF recombinant protein and A1 HBD peptide (ELISA); settings: plate coated with vWF protein, A1 domain or HBD peptide, 1 μg/mL GF
Experimental: (§3) ELISA tests were performed as described above. In brief, ELISA plates were coated with 1 μg/mL of FL-vWF (WT or R1341Q), 1 μg/mL of vWF A1 recombinant protein (U-Protein Express) or 1 μg/mL of vWF A1 HBD peptide (sequence […], (SEQ ID NO:50) chemically synthesized by Genscript) at 37° C. overnight. After blocking with 2% BSA solution containing PBS-T, 1 μg/mL of the recombinant human proteins VEGF-A121, VEGF-A165, PlGF-1, PlGF-2, PDGF-BB, FGF-2, CXCL-12α and CXCL-12γ were added. 1 μg/mL of BSA served as non-binding protein control. Bound GF or chemokine was detected with biotinylated antibodies for human VEGF-A, PlGF, PDGF-BB, FGF-2, or CXCL-12 (R & D Systems). The antibodies were detected by streptavidin-HRP (R & D Systems). Color development and the absorbance measurement were done as described above.

VEGF-A165 [5] = biological target: T1, VEGF-A165; assay: as above; settings: plate coated with vWF protein, A1 domain or HBD peptide, 1 μg/mL GF
Experimental: as §3

PDGF-BB [6] = biological target: T9, PDGF-BB; assay: as above; settings: plate coated with vWF protein, A1 domain or HBD peptide, 1 μg/mL GF
Experimental: as §3

T9 sequence (P01127 82-190 limits assumed): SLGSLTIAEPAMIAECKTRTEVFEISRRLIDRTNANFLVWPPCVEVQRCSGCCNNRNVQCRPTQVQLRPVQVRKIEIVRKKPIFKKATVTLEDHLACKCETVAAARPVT
T7 sequence (P48061 22-119 isoform P48061-3): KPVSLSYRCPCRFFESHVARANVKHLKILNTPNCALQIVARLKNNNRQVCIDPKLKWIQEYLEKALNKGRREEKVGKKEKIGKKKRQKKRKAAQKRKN
T5 sequence (P01137 279-390 limits assumed, species assumed): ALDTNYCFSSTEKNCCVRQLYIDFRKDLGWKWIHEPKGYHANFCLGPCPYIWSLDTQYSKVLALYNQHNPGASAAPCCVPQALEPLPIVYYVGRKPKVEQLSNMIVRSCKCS
T4 sequence (Q9NRA1 235-345 limits assumed): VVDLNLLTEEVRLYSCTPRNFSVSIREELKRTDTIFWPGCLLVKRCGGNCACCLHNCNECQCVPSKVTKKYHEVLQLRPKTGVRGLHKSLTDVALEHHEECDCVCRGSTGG
T8 sequence (P01138 122-241, species assumed): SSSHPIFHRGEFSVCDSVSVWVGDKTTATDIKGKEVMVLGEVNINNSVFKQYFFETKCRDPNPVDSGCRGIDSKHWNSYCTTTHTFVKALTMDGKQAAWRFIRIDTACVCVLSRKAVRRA

Substance	Kd (VEGF-A165 [1]) [nM]	vWF binding to VEGF-A121 (VEGF-A121)	vWF binding to BMP-2 (BMP-2)	vWF binding to PDGF-CC (PDGF-CC)	vWF binding to TGF-β1 (TGF-β1)	vWF binding to BMP-7 (BMP-7)	vWF binding to CXCL-12γ (CXCL-12γ [2])	vWF binding to β-NGF (β-NGF)	Kd (PDGF-BB [3]) [nM]	binding to CXCL-12γ (CXCL-12γ [4])	binding to VEGF-A165 (VEGF-A165 [5])	binding to PDGF-BB (PDGF-BB [6])
vWF: human plasma-derived von Willebrand factor (EMD Millipore)	27	not	strong binding	bound	strong binding	not	strong binding signal	relevant binding	24			
YIGLKDRKRPSELRRIASQVKYAC [vWF HBD]										showed binding	showed binding	showed binding
